Experiment [1] addresses human factor XIa (human), P03951.
Experiment [2] addresses T1, human plasmin (human), P00747.
T1 chain: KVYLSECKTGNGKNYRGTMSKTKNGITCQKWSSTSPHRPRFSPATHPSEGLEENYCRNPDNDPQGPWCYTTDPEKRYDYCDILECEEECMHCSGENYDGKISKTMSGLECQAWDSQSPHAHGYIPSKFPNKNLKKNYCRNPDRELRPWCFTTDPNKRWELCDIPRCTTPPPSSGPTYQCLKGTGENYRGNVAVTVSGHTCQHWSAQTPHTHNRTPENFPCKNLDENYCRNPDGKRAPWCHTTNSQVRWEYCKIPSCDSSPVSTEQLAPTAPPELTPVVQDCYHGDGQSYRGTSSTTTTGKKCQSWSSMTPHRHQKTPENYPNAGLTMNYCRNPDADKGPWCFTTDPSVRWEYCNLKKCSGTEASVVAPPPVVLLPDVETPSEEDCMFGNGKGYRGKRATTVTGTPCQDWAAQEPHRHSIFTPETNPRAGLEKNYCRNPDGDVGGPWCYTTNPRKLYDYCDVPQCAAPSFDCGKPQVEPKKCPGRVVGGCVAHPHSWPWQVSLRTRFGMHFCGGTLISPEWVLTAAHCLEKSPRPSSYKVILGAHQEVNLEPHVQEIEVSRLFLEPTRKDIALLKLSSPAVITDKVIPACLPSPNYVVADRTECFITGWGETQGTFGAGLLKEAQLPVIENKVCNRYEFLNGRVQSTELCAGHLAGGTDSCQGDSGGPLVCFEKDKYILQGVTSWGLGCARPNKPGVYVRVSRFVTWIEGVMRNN

Experiment [3] deals with T2, human activated protein C (human), P04070.
T2 chain 1: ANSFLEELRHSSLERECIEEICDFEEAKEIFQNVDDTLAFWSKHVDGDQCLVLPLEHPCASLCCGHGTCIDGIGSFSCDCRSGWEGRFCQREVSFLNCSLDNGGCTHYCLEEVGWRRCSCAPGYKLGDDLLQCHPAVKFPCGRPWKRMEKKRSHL
T2 chain 2: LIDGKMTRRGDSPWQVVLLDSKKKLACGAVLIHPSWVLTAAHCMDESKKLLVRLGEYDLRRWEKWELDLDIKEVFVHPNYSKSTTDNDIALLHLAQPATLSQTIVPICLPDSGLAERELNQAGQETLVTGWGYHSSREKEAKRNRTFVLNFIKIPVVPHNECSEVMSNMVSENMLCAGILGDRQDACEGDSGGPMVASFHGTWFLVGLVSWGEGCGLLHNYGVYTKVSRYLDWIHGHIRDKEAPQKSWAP

Experiment [4] has as its target T2, human activated protein C (human), ….
Experiment [5] has the same target.
Experiment [6] has the same target. The experiment can be described thus: cell-based or functional assay.

Like-named read-outs stand apart in the source and are kept apart here.

B1: DrKIn-I (Daboia russelii Kunitz Inhibitor-I), A8Y7N4 25-90 (protein)
chain: QDRPKFCNLAPESGRCRGHLRRIYYNPDSNKCEVFFYGGCGGNDNNFETRKKCRQTCGAPRKGRPT
modifications: not checked
Consider B1, for which, in experiment [1], the inhibition constant (Ki) came out at 1.33 nM and the fold of Ki against the Ki for APC inhibition was > 25 fold. In experiment [2], the Ki was 1.56 nM and the fold of Ki against the Ki for APC inhibition was > 25 fold. Also, in experiment [3], the Kd amounted to 2.6 nM, the koff turned out to be 0.034 s⁻¹ and the on-rate (kon) came out at 1.3e+07 M⁻¹ s⁻¹. In addition, in experiment [4], the kon was found to be 1.7e+07 M⁻¹ s⁻¹. Further, in experiment [5], the Ki was found to be 0.053 nM. Moreover, the fold reduction of the IC50 by heparin in experiment [6] is 25 fold.

Source of the values: patent US20140142040A1.
